# Data taken from patent CN118050507A.
# B1: O型口蹄疫病毒中和抗体Ab1 (VHH)
# VHH: QVQLQESGGGLVQPGGSLRLSCAASGTPFSGGSINEISINHLGWYRQAPGKERELVAAITRGGSTYYADSVKGRFAISRDDAKKMVYLQMNSLKPEDTAVYYCNGLRASTAQWEESETTWGQGTQVTVSS
# Biological target: O型FMDV流行毒株 (Foot-and-mouth disease virus serotype O)
# Assay: cell-based or functional assay
binder,measurement,value
B1,Neu 50 (病毒中和试验),0.8 µmol/L
